# Results taken from the RNAGym collection of RNA variant scans (doi:10.1093/molbev/msab373).
# B1: Azoarcus group I ribozyme (parent)
# chain: GUGCCUUGCGCCGGGAAACCACGCAAGGGAUGGUGUCAAAUUCGGCGAAACCUAAGCGCCCGCCCGGGCGUAUGGCAACGCCGAGCCAAGCUUCGGCGCCUGCGCCGAUGAAGGUGUAGAGACUAGACGGCACCCACCUAAGGCAAACGCUAUGGUGAAGGCAUAGUCCAGGGAGUGGCGAAAGUCACACAAACCGG
# Variants of: B1
# Test: reverse-splicing fitness (ratio to wild type); higher = more active; in vitro selection; Mg2+ level not given
# Outline: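 An in vitro group I ribozyme library with randomized positions was T7-transcribed and gel-purified. In triplicate, 10 pmol RNA in EPPS pH 7.5 was reacted with 50 pmoles of a 30-nt RNA substrate for 1 h at 37 °C across several added MgCl2 levels (1–48 mM), then stopped with EDTA. Products were reverse transcribed from a substrate-complementary primer, PCR-amplified and sequenced (HiSeq 4000). Fitness is a variant's read proportion after selection over that before, normalised to wild type.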
row,Variant,reverse-splicing fitness
1,A111G A120G A145G C150A,0.0452
2,A111G A120G A145G C150A C169A,0.0278
3,A111G A120G A145G C150A C169A U176A,0.0193
4,A111G A120G A145G C150A C169A U176C,0.0283
5,A111G A120G A145G C150A C169A U176G,0.00569
6,A111G A120G A145G C150A C169G,0.0514
7,A111G A120G A145G C150A C169G U176A,0.0262
8,A111G A120G A145G C150A C169G U176C,0.0371
9,A111G A120G A145G C150A C169G U176G,0.00578
10,A111G A120G A145G C150A C169U,0.0458
11,A111G A120G A145G C150A C169U U176A,0.0309
12,A111G A120G A145G C150A C169U U176C,0.0305
13,A111G A120G A145G C150A C169U U176G,0.00605
14,A111G A120G A145G C150A U176A,0.0225
15,A111G A120G A145G C150A U176C,0.0374
16,A111G A120G A145G C150A U176G,0.00788
17,A111G A120G A145G C150G,0.0366
18,A111G A120G A145G C150G C169A,0.0213
19,A111G A120G A145G C150G C169A U176A,0.0122
20,A111G A120G A145G C150G C169A U176C,0.0143
21,A111G A120G A145G C150G C169A U176G,0.00709

row,Variant,reverse-splicing fitness
1,A111G A120G A145G C150G C169G,0.0306
2,A111G A120G A145G C150G C169G U176A,0.00945
3,A111G A120G A145G C150G C169G U176C,0.0117
4,A111G A120G A145G C150G C169G U176G,0.0054
5,A111G A120G A145G C150G C169U,0.0343
6,A111G A120G A145G C150G C169U U176A,0.012
7,A111G A120G A145G C150G C169U U176C,0.0152
8,A111G A120G A145G C150G C169U U176G,0.00654
9,A111G A120G A145G C150G U176A,0.0132
10,A111G A120G A145G C150G U176C,0.0227
11,A111G A120G A145G C150G U176G,0.00619
12,A111G A120G A145G C150U,0.244
13,A111G A120G A145G C150U C169A,0.131
14,A111G A120G A145G C150U C169A U176A,0.0303
15,A111G A120G A145G C150U C169A U176C,0.0553
16,A111G A120G A145G C150U C169A U176G,0.00612
17,A111G A120G A145G C150U C169G,0.255
18,A111G A120G A145G C150U C169G U176A,0.0549
19,A111G A120G A145G C150U C169G U176C,0.078
20,A111G A120G A145G C150U C169G U176G,0.00563
21,A111G A120G A145G C150U C169U,0.2

row,Variant,reverse-splicing fitness
1,A111G A120G A145G C150U C169U U176A,0.0625
2,A111G A120G A145G C150U C169U U176C,0.0831
3,A111G A120G A145G C150U C169U U176G,0.00628
4,A111G A120G A145G C150U U176A,0.0693
5,A111G A120G A145G C150U U176C,0.0905
6,A111G A120G A145G C150U U176G,0.00986
7,A111G A120G A145G C169A,0.188
8,A111G A120G A145G C169A U176A,0.0489
9,A111G A120G A145G C169A U176C,0.0746
10,A111G A120G A145G C169A U176G,0.00474
11,A111G A120G A145G C169G,0.329
12,A111G A120G A145G C169G U176A,0.0887
13,A111G A120G A145G C169G U176C,0.134
14,A111G A120G A145G C169G U176G,0.00622
15,A111G A120G A145G C169U,0.252
16,A111G A120G A145G C169U U176A,0.0849
17,A111G A120G A145G C169U U176C,0.0954
18,A111G A120G A145G C169U U176G,0.00896
19,A111G A120G A145G U176A,0.0808
20,A111G A120G A145G U176C,0.12
21,A111G A120G A145G U176G,0.00937

row,Variant,reverse-splicing fitness
1,A111G A120G A145U,0.274
2,A111G A120G A145U C150A,0.0301
3,A111G A120G A145U C150A C169A,0.018
4,A111G A120G A145U C150A C169A U176A,0.0157
5,A111G A120G A145U C150A C169A U176C,0.015
6,A111G A120G A145U C150A C169A U176G,0.00504
7,A111G A120G A145U C150A C169G,0.0305
8,A111G A120G A145U C150A C169G U176A,0.0201
9,A111G A120G A145U C150A C169G U176C,0.0243
10,A111G A120G A145U C150A C169G U176G,0.00424
11,A111G A120G A145U C150A C169U,0.0268
12,A111G A120G A145U C150A C169U U176A,0.0273
13,A111G A120G A145U C150A C169U U176C,0.0198
14,A111G A120G A145U C150A C169U U176G,0.00518
15,A111G A120G A145U C150A U176A,0.0179
16,A111G A120G A145U C150A U176C,0.0234
17,A111G A120G A145U C150A U176G,0.00541
18,A111G A120G A145U C150G,0.0319
19,A111G A120G A145U C150G C169A,0.0193
20,A111G A120G A145U C150G C169A U176A,0.0101
